From publication PMC7948499, “The molecular basis of the nonprocessive elongation mechanism in levansucrases” (The Journal of Biological Chemistry, 2020)

T1: SacB (Bacillus subtilis levansucrase, LS) (Bacillus subtilis, UniProt P05655, D86A/E342A)
T1 construct: sacB gene of strain 168 in pET22b, expressed in E. coli BL21(DE3); residues 32-471 modelled in crystal
T1 sequence (P05655 30-473 D86A/E342A): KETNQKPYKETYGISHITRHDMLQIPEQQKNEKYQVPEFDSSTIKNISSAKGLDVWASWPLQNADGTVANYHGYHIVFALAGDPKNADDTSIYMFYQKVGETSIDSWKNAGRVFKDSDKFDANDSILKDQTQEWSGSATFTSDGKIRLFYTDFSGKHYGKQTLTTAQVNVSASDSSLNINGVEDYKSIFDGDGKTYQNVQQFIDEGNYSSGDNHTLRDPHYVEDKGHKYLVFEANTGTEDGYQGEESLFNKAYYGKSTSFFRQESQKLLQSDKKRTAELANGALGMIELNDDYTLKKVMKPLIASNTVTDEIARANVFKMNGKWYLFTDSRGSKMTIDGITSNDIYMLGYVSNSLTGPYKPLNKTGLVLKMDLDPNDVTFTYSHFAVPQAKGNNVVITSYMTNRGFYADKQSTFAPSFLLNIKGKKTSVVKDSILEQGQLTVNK


biological target: T1, SacB (Bacillus subtilis levansucrase, LS); assay: X-ray crystal structure, […] Å, cocrystallization; type: binding; conditions: catalytically inactive mutant; pH 6.0, 18 °C; active site (OB1, six fructose units modelled as levanhexaose); second site OB2 about 20 Å away (levanhexaose in chain A, levanbiose in chain B)

Molecule | X-ray crystal structure, 2.05 Å, cocrystallization
OC[C@H]1O[C@@](CO)(OC[C@H]2O[C@@](CO)(OC[C@H]3O[C@@](CO)(OC[C@H]4O[C@@](CO)(OC[C@H]5O[C@@](CO)(OC[C@H]6O[C@@](CO)(OC[C@H]7O[C@@](CO)(O[C@H]8O[C@H](CO)[C@@H](O)[C@H](O)[C@H]8O)[C@@H](O)[C@@H]7O)[C@@H](O)[C@@H]6O)[C@@H](O)[C@@H]5O)[C@@H](O)[C@@H]4O)[C@@H](O)[C@@H]3O)[C@@H](O)[C@@H]2O)[C@@H](O)[C@@H]1O [6,6,6,6,6,6-kestooctaose] | inactive double mutant of SacB (D86A/E342A) cocrystallized in the presence of a levan-type FOS

substrate: OC[C@H]1O[C@@](CO)(O[C@H]2O[C@H](CO)[C@@H](O)[C@H](O)[C@H]2O)[C@@H](O)[C@@H]1O; assay: initial rates, reducing sugar release by dinitrosalicylic acid; type: biochemical, Bacillus subtilis; conditions: 50 mM acetate pH 6.0, 0-300 mM sucrose, 1 mM CaCl2 in enzyme buffer

Molecule | Km | kcat
SacB (Bacillus subtilis levansucrase, LS) (Bacillus subtilis subsp. subtilis str. 168) (protein, sacB gene of strain 168 in pET22b, expressed in E. coli BL21(DE3); residues 32-471 modelled in crystal) KETNQKPYKETYGISHITRHDMLQIPEQQKNEKYQVPEFDSSTIKNISSAKGLDVWDSWPLQNADGTVANYHGYHIVFALAGDPKNADDTSIYMFYQKVGETSIDSWKNAGRVFKDSDKFDANDSILKDQTQEWSGSATFTSDGKIRLFYTDFSGKHYGKQTLTTAQVNVSASDSSLNINGVEDYKSIFDGDGKTYQNVQQFIDEGNYSSGDNHTLRDPHYVEDKGHKYLVFEANTGTEDGYQGEESLFNKAYYGKSTSFFRQESQKLLQSDKKRTAELANGALGMIELNDDYTLKKVMKPLIASNTVTDEIERANVFKMNGKWYLFTDSRGSKMTIDGITSNDIYMLGYVSNSLTGPYKPLNKTGLVLKMDLDPNDVTFTYSHFAVPQAKGNNVVITSYMTNRGFYADKQSTFAPSFLLNIKGKKTSVVKDSILEQGQLTVNK | 9 mM | 236.7 s⁻¹
SacB (Bacillus subtilis levansucrase, LS) (Bacillus subtilis subsp. subtilis str. 168; Y237A) (protein, sacB gene of strain 168 in pET22b, expressed in E. coli BL21(DE3); residues 32-471 modelled in crystal) KETNQKPYKETYGISHITRHDMLQIPEQQKNEKYQVPEFDSSTIKNISSAKGLDVWDSWPLQNADGTVANYHGYHIVFALAGDPKNADDTSIYMFYQKVGETSIDSWKNAGRVFKDSDKFDANDSILKDQTQEWSGSATFTSDGKIRLFYTDFSGKHYGKQTLTTAQVNVSASDSSLNINGVEDYKSIFDGDGKTYQNVQQFIDEGNASSGDNHTLRDPHYVEDKGHKYLVFEANTGTEDGYQGEESLFNKAYYGKSTSFFRQESQKLLQSDKKRTAELANGALGMIELNDDYTLKKVMKPLIASNTVTDEIERANVFKMNGKWYLFTDSRGSKMTIDGITSNDIYMLGYVSNSLTGPYKPLNKTGLVLKMDLDPNDVTFTYSHFAVPQAKGNNVVITSYMTNRGFYADKQSTFAPSFLLNIKGKKTSVVKDSILEQGQLTVNK | 10.6 (1.7) mM | 256.3 (9.3) s^-1
SacB (Bacillus subtilis levansucrase, LS) (Bacillus subtilis subsp. subtilis str. 168; N242A) (protein, sacB gene of strain 168 in pET22b, expressed in E. coli BL21(DE3); residues 32-471 modelled in crystal) KETNQKPYKETYGISHITRHDMLQIPEQQKNEKYQVPEFDSSTIKNISSAKGLDVWDSWPLQNADGTVANYHGYHIVFALAGDPKNADDTSIYMFYQKVGETSIDSWKNAGRVFKDSDKFDANDSILKDQTQEWSGSATFTSDGKIRLFYTDFSGKHYGKQTLTTAQVNVSASDSSLNINGVEDYKSIFDGDGKTYQNVQQFIDEGNYSSGDAHTLRDPHYVEDKGHKYLVFEANTGTEDGYQGEESLFNKAYYGKSTSFFRQESQKLLQSDKKRTAELANGALGMIELNDDYTLKKVMKPLIASNTVTDEIERANVFKMNGKWYLFTDSRGSKMTIDGITSNDIYMLGYVSNSLTGPYKPLNKTGLVLKMDLDPNDVTFTYSHFAVPQAKGNNVVITSYMTNRGFYADKQSTFAPSFLLNIKGKKTSVVKDSILEQGQLTVNK | 19.9 mM | 
SacB (Bacillus subtilis levansucrase, LS) (Bacillus subtilis subsp. subtilis str. 168; F182A) (protein, sacB gene of strain 168 in pET22b, expressed in E. coli BL21(DE3); residues 32-471 modelled in crystal) KETNQKPYKETYGISHITRHDMLQIPEQQKNEKYQVPEFDSSTIKNISSAKGLDVWDSWPLQNADGTVANYHGYHIVFALAGDPKNADDTSIYMFYQKVGETSIDSWKNAGRVFKDSDKFDANDSILKDQTQEWSGSATFTSDGKIRLFYTDASGKHYGKQTLTTAQVNVSASDSSLNINGVEDYKSIFDGDGKTYQNVQQFIDEGNYSSGDNHTLRDPHYVEDKGHKYLVFEANTGTEDGYQGEESLFNKAYYGKSTSFFRQESQKLLQSDKKRTAELANGALGMIELNDDYTLKKVMKPLIASNTVTDEIERANVFKMNGKWYLFTDSRGSKMTIDGITSNDIYMLGYVSNSLTGPYKPLNKTGLVLKMDLDPNDVTFTYSHFAVPQAKGNNVVITSYMTNRGFYADKQSTFAPSFLLNIKGKKTSVVKDSILEQGQLTVNK | 14.5 mM | 

substrate: OC[C@H]1O[C@@](CO)(O[C@H]2O[C@H](CO)[C@@H](O)[C@H](O)[C@H]2O)[C@@H](O)[C@@H]1O; assay: as above; type: biochemical, Bacillus subtilis; conditions: 50 mM acetate pH 6.0, 0-300 mM sucrose, 1 mM CaCl2 in enzyme buffer; remark: another data set of the same source
Protocol: initial rates, reducing sugar release by dinitrosalicylic acid on SacB (Bacillus subtilis levansucrase, LS) | were expressed and purified, and their kinetic parameters were determined (Fig. 4B)

Molecule | Km | kcat
SacB (Bacillus subtilis levansucrase, LS) (Bacillus subtilis subsp. subtilis str. 168; Y187A) (protein, sacB gene of strain 168 in pET22b, expressed in E. coli BL21(DE3); residues 32-471 modelled in crystal) KETNQKPYKETYGISHITRHDMLQIPEQQKNEKYQVPEFDSSTIKNISSAKGLDVWDSWPLQNADGTVANYHGYHIVFALAGDPKNADDTSIYMFYQKVGETSIDSWKNAGRVFKDSDKFDANDSILKDQTQEWSGSATFTSDGKIRLFYTDFSGKHAGKQTLTTAQVNVSASDSSLNINGVEDYKSIFDGDGKTYQNVQQFIDEGNYSSGDNHTLRDPHYVEDKGHKYLVFEANTGTEDGYQGEESLFNKAYYGKSTSFFRQESQKLLQSDKKRTAELANGALGMIELNDDYTLKKVMKPLIASNTVTDEIERANVFKMNGKWYLFTDSRGSKMTIDGITSNDIYMLGYVSNSLTGPYKPLNKTGLVLKMDLDPNDVTFTYSHFAVPQAKGNNVVITSYMTNRGFYADKQSTFAPSFLLNIKGKKTSVVKDSILEQGQLTVNK | 8.4 (0.9) mM | 199.2 (4.4) s^-1
SacB (Bacillus subtilis levansucrase, LS) (Bacillus subtilis subsp. subtilis str. 168; D117A) (protein, sacB gene of strain 168 in pET22b, expressed in E. coli BL21(DE3); residues 32-471 modelled in crystal) KETNQKPYKETYGISHITRHDMLQIPEQQKNEKYQVPEFDSSTIKNISSAKGLDVWDSWPLQNADGTVANYHGYHIVFALAGDPKNAADTSIYMFYQKVGETSIDSWKNAGRVFKDSDKFDANDSILKDQTQEWSGSATFTSDGKIRLFYTDFSGKHYGKQTLTTAQVNVSASDSSLNINGVEDYKSIFDGDGKTYQNVQQFIDEGNYSSGDNHTLRDPHYVEDKGHKYLVFEANTGTEDGYQGEESLFNKAYYGKSTSFFRQESQKLLQSDKKRTAELANGALGMIELNDDYTLKKVMKPLIASNTVTDEIERANVFKMNGKWYLFTDSRGSKMTIDGITSNDIYMLGYVSNSLTGPYKPLNKTGLVLKMDLDPNDVTFTYSHFAVPQAKGNNVVITSYMTNRGFYADKQSTFAPSFLLNIKGKKTSVVKDSILEQGQLTVNK | 13.2 (1.7) mM | 171.2 (5.7) s^-1
SacB (Bacillus subtilis levansucrase, LS) (Bacillus subtilis subsp. subtilis str. 168; F182Y) (protein, sacB gene of strain 168 in pET22b, expressed in E. coli BL21(DE3); residues 32-471 modelled in crystal) KETNQKPYKETYGISHITRHDMLQIPEQQKNEKYQVPEFDSSTIKNISSAKGLDVWDSWPLQNADGTVANYHGYHIVFALAGDPKNADDTSIYMFYQKVGETSIDSWKNAGRVFKDSDKFDANDSILKDQTQEWSGSATFTSDGKIRLFYTDYSGKHYGKQTLTTAQVNVSASDSSLNINGVEDYKSIFDGDGKTYQNVQQFIDEGNYSSGDNHTLRDPHYVEDKGHKYLVFEANTGTEDGYQGEESLFNKAYYGKSTSFFRQESQKLLQSDKKRTAELANGALGMIELNDDYTLKKVMKPLIASNTVTDEIERANVFKMNGKWYLFTDSRGSKMTIDGITSNDIYMLGYVSNSLTGPYKPLNKTGLVLKMDLDPNDVTFTYSHFAVPQAKGNNVVITSYMTNRGFYADKQSTFAPSFLLNIKGKKTSVVKDSILEQGQLTVNK | 10.3 (0.7) mM | 162.2 (2.6) s^-1
SacB (Bacillus subtilis levansucrase, LS) (Bacillus subtilis subsp. subtilis str. 168; K363A) (protein, sacB gene of strain 168 in pET22b, expressed in E. coli BL21(DE3); residues 32-471 modelled in crystal) KETNQKPYKETYGISHITRHDMLQIPEQQKNEKYQVPEFDSSTIKNISSAKGLDVWDSWPLQNADGTVANYHGYHIVFALAGDPKNADDTSIYMFYQKVGETSIDSWKNAGRVFKDSDKFDANDSILKDQTQEWSGSATFTSDGKIRLFYTDFSGKHYGKQTLTTAQVNVSASDSSLNINGVEDYKSIFDGDGKTYQNVQQFIDEGNYSSGDNHTLRDPHYVEDKGHKYLVFEANTGTEDGYQGEESLFNKAYYGKSTSFFRQESQKLLQSDKKRTAELANGALGMIELNDDYTLKKVMKPLIASNTVTDEIERANVFKMNGKWYLFTDSRGSAMTIDGITSNDIYMLGYVSNSLTGPYKPLNKTGLVLKMDLDPNDVTFTYSHFAVPQAKGNNVVITSYMTNRGFYADKQSTFAPSFLLNIKGKKTSVVKDSILEQGQLTVNK | 10.5 (2.2) mM | 95.4 (2.2) s^-1
SacB (Bacillus subtilis levansucrase, LS) (Bacillus subtilis subsp. subtilis str. 168; F182W) (protein, sacB gene of strain 168 in pET22b, expressed in E. coli BL21(DE3); residues 32-471 modelled in crystal) KETNQKPYKETYGISHITRHDMLQIPEQQKNEKYQVPEFDSSTIKNISSAKGLDVWDSWPLQNADGTVANYHGYHIVFALAGDPKNADDTSIYMFYQKVGETSIDSWKNAGRVFKDSDKFDANDSILKDQTQEWSGSATFTSDGKIRLFYTDWSGKHYGKQTLTTAQVNVSASDSSLNINGVEDYKSIFDGDGKTYQNVQQFIDEGNYSSGDNHTLRDPHYVEDKGHKYLVFEANTGTEDGYQGEESLFNKAYYGKSTSFFRQESQKLLQSDKKRTAELANGALGMIELNDDYTLKKVMKPLIASNTVTDEIERANVFKMNGKWYLFTDSRGSKMTIDGITSNDIYMLGYVSNSLTGPYKPLNKTGLVLKMDLDPNDVTFTYSHFAVPQAKGNNVVITSYMTNRGFYADKQSTFAPSFLLNIKGKKTSVVKDSILEQGQLTVNK | 10.5 (1.3) mM | 129.4 (3.6) s^-1
